Tests used:
[1] = target: trimeric Spike K417N/E484K/N501Y (SARS-CoV-2) (UniProt P0DTC2); test: Luminex bead-based binding assay
[2] = target: trimeric Spike, full P.1 variant (SARS-CoV-2) (UniProt P0DTC2); test: Luminex bead-based binding assay

REGN10933 (antibody)
fold reduced binding affinity [1]: 60 fold
fold reduced binding affinity [2]: 195 fold

Reference: publication PMC8452523
